B1: Hammerhead Ribozyme (parent)
chain: ACCGGAUGUGCUUUCCGGUCUGAUGAGUCCGUGAGGACGAAACAG

Variants of: B1
Test: self-cleavage, relative activity (ratio to wild type); higher = more cleavage; co-transcriptional

Row | Variant | self-cleavage
1 | C20U A41G | 0.349
2 | C20U A41U | 0.37
3 | C20U A42C | 0.323
4 | C20U A42G | 0.258
5 | C20U A42U | 0.322
6 | C20U A44C | 0.376
7 | C20U A44G | 0.962
8 | C20U A44U | 0.324
9 | C20U C29A | 0.296
10 | C20U C29G | 0.378
11 | C20U C29U | 0.395
12 | C20U C30A | 0.464
13 | C20U C30G | 0.398
14 | C20U C30U | 0.594
15 | C20U C38A | 0.336
16 | C20U C38G | 0.298
17 | C20U C38U | 0.501
18 | C20U C43A | 0.264
19 | C20U C43G | 0.278
20 | C20U C43U | 0.325
21 | C20U G22A | 0.338
22 | C20U G22C | 0.377
23 | C20U G22U | 0.341
24 | C20U G25A | 0.756

Row | Variant | self-cleavage
25 | C20U G25C | 0.273
26 | C20U G25U | 0.328
27 | C20U G27A | 0.373
28 | C20U G27C | 0.409
29 | C20U G27U | 0.332
30 | C20U G31A | 0.783
31 | C20U G31C | 0.489
32 | C20U G31U | 0.718
33 | C20U G33A | 0.867
34 | C20U G33C | 0.682
35 | C20U G33U | 0.762
36 | C20U G35A | 0.412
37 | C20U G35C | 0.407
38 | C20U G35U | 0.347
39 | C20U G36A | 0.36
40 | C20U G36C | 0.327
41 | C20U G36U | 0.359
42 | C20U G39A | 0.383
43 | C20U G39C | 0.362
44 | C20U G39U | 0.335
45 | C20U G45A | 0.359
46 | C20U G45C | 0.471
47 | C20U G45U | 0.387
48 | C20U U21A | 0.358

Row | Variant | self-cleavage
49 | C20U U21C | 0.531
50 | C20U U21G | 0.362
51 | C20U U24A | 0.799
52 | C20U U24C | 0.508
53 | C20U U24G | 0.714
54 | C20U U28A | 0.621
55 | C20U U28C | 0.661
56 | C20U U28G | 0.596
57 | C20U U32A | 0.506
58 | C20U U32C | 0.395
59 | C20U U32G | 0.494
60 | U21A | 0.687
61 | U21A A23C | 0.474
62 | U21A A23G | 0.419
63 | U21A A23U | 0.34
64 | U21A A26C | 0.299
65 | U21A A26G | 0.346
66 | U21A A26U | 0.356
67 | U21A A34C | 0.439
68 | U21A A34G | 0.387
69 | U21A A34U | 0.359
70 | U21A A37C | 0.529
71 | U21A A37G | 0.365
72 | U21A A37U | 0.502

Row | Variant | self-cleavage
73 | U21A A40C | 0.315
74 | U21A A40G | 0.271
75 | U21A A40U | 0.338
76 | U21A A41C | 0.437
77 | U21A A41G | 0.401
78 | U21A A41U | 0.325
79 | U21A A42C | 0.382
80 | U21A A42G | 0.307
81 | U21A A42U | 0.402
82 | U21A A44C | 0.415
83 | U21A A44G | 0.932
84 | U21A A44U | 0.283
85 | U21A C29A | 0.31
86 | U21A C29G | 0.354
87 | U21A C29U | 0.558
88 | U21A C30A | 0.511
89 | U21A C30G | 0.448
90 | U21A C30U | 0.57
91 | U21A C38A | 0.363
92 | U21A C38G | 0.378
93 | U21A C38U | 0.401
94 | U21A C43A | 0.349
95 | U21A C43G | 0.32
96 | U21A C43U | 0.398

Row | Variant | self-cleavage
97 | U21A G22A | 0.35
98 | U21A G22C | 0.31
99 | U21A G22U | 0.407
100 | U21A G25A | 0.334
101 | U21A G25C | 0.312
102 | U21A G25U | 0.333
103 | U21A G27A | 0.363
104 | U21A G27C | 0.296
105 | U21A G27U | 0.294
106 | U21A G31A | 0.634
107 | U21A G31C | 0.532
108 | U21A G31U | 0.554
109 | U21A G33A | 0.808
110 | U21A G33C | 0.584
111 | U21A G33U | 0.55
112 | U21A G35A | 0.52
113 | U21A G35C | 0.492
114 | U21A G35U | 0.466
115 | U21A G36A | 0.41
116 | U21A G36C | 0.283
117 | U21A G36U | 0.418
118 | U21A G39A | 0.311
119 | U21A G39C | 0.32
120 | U21A G39U | 0.301

Row | Variant | self-cleavage
121 | U21A G45A | 0.329
122 | U21A G45C | 0.335
123 | U21A G45U | 0.432
124 | U21A U24A | 0.652
125 | U21A U24C | 0.329
126 | U21A U24G | 0.516
127 | U21A U28A | 0.46
128 | U21A U28C | 0.529
129 | U21A U28G | 0.392
130 | U21A U32A | 0.539
131 | U21A U32C | 0.508
132 | U21A U32G | 0.515
133 | U21C | 0.877
134 | U21C A23C | 0.771
135 | U21C A23G | 0.354
136 | U21C A23U | 0.708
137 | U21C A26C | 0.404
138 | U21C A26G | 0.295
139 | U21C A26U | 0.503
140 | U21C A34C | 0.316
141 | U21C A34G | 0.653
142 | U21C A34U | 0.749
143 | U21C A37C | 0.907
144 | U21C A37G | 0.866

Row | Variant | self-cleavage
145 | U21C A37U | 0.72
146 | U21C A40C | 0.393
147 | U21C A40G | 0.371
148 | U21C A40U | 0.274
149 | U21C A41C | 0.329
150 | U21C A41G | 0.297
151 | U21C A41U | 0.469
152 | U21C A42C | 0.28
153 | U21C A42G | 0.323
154 | U21C A42U | 0.318
155 | U21C A44C | 0.454
156 | U21C A44G | 0.852
157 | U21C A44U | 0.571
158 | U21C C29A | 0.37
159 | U21C C29G | 0.507
160 | U21C C29U | 0.84
161 | U21C C30A | 0.494
162 | U21C C30G | 0.403
163 | U21C C30U | 0.891
164 | U21C C38A | 0.711
165 | U21C C38G | 0.659
166 | U21C C38U | 0.629
167 | U21C C43A | 0.216

Reference: the RNAGym collection of RNA variant scans (doi:10.7554/elife.80360)
